# Experimental data reported in patent US20200276330A1 (NANOMAB TECHNOLOGY, published 2020).
# Substitutions are numbered along the chain they refer to.
# B1: Nanobody No. 2 (VHH)
# VHH: QVQLQESGGGSVQAGGSLRLSCAASGYTYSSDGMGWFRQTPGKEREGVAAISPTGRRTEYADSVKGRFTISRDNNKNMLSLQMNSLKPEDTGMYYCAREGSWSFSLANSAVRSWGQGTQVTVSS
# notes: Expressed in E. coli WK6 and purified on a nickel column; not shown: HA and His tags (implied by anti-HA detection and nickel column)
# B2: Nanobody No. 1 (VHH)
# VHH: QVQLQESGGGSVQTGGSLRLSCAASTSIYSNNYMAWFSQAPGKGREGVAAVYIDDGRPYYADSVKGRFTISLDSAKNTVYLQMNRLKPEDTAMYYCAAAPGPLSHNYWYTSANYDYWGQGTQVTVSS
# notes: as for B1
# B3: Nanobody No. 3 (VHH)
# VHH: B2 VHH with A23T, A40S, I53M, V79M, R85S, H105R
# notes: as for B1
# Molecular target: T1, human PD-L1 full-length protein on transiently transfected HEK293F cells (human, UniProt Q9NZQ7 19-290)
# T1 construct: whole, on cells
# T1 sequence (Q9NZQ7 19-290): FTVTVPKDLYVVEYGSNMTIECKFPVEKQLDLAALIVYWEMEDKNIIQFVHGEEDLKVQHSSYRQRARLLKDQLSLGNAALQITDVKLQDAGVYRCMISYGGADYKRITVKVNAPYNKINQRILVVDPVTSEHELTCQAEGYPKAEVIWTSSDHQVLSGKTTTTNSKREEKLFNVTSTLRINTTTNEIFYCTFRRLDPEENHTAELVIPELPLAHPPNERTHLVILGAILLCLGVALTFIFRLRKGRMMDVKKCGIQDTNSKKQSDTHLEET
# Assay: flow cytometry competition: 10 ug nanobody + 5 ug hPD-1-Fc-Biotin on HEK293F cells expressing human PD-L1, SA-PE
# Protocol: (1) 1×10⁶ HEK293F cells transiently transfected to express human PD-L1 full-length protein were collected and resuspended in 0.5% BSA-PBS buffer. And 10 μg of anti-PD-L1 nanobodies were added, and a positive control, a negative control and blank group (PBS) were set up. All samples were incubated with 5 μg of hPD-1-Fc-Biotin for 20 minutes at 4° C.
# (2) The cells were washed twice by PBS and incubated with SA-PE from eBioscience for 20 minutes at 4° C. Cells were washed again with PBS twice and were detected by flow cytometry.
row,PD-1/PD-L1 Inhibitory effect [%],Binder
1,19.3,B1
2,19.3,B2
3,19.2,B3

# Molecular target: T2, PD-L1 (coated on the ELISA plate) (UniProt Q9NZQ7 19-238, limits assumed)
# T2 construct: also called B7-H1; CD274
# T2 sequence (Q9NZQ7 19-238 limits assumed): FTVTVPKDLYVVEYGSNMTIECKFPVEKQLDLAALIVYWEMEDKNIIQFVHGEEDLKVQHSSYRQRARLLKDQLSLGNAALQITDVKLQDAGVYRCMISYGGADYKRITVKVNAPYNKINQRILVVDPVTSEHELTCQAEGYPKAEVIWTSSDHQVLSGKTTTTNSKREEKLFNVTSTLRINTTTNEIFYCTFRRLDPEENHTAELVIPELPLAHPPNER
# Assay: ELISA with gradient dilution of nanobody on coated PD-L1
# Protocol: (1) The PD-L1 was coated on the plate, and IgG and NaHCO₃ (100 mM, pH8.2) were used as blank controls. All were incubated overnight at 4° C.
# (3) The purified nanobodies were diluted, and reacted with coated PD-L1, IgG and NaHCO₃ at room temperature for 1 hour.
row,Kd [nM],Binder
1,1.62,B1
2,7.96,B2
3,4.46,B3

# Molecular target: T3, PD-L1 on HCC827 cells (high PD-L1 expression) and A549 cells (low PD-L1 expression) (UniProt Q9NZQ7 19-290, limits assumed)
# T3 construct: whole, on cells; HCC827 and A549 are known human lung cancer lines
# T3 sequence (Q9NZQ7 19-290 limits assumed): as the sequence (Q9NZQ7 19-290) above
# Assay: flow cytometry on A549 cells (low PD-L1 expression), anti-HA Alexa Fluor 488
row,"positive rate, A549 [%]",Binder
1,32.6,B1
2,11.5,B2
3,13.5,B3

# Molecular target: T3, PD-L1 on HCC827 cells (high PD-L1 …)
# Assay: flow cytometry on HCC827 cells (high PD-L1 expression), anti-HA Alexa Fluor 488
row,"positive rate, HCC827 [%]",Binder
1,92.8,B1
2,88.1,B2
3,66.5,B3
